Source: patent US20260069707A1, “COMBINATION THERAPY WITH ANTIBODY-DRUG CONJUGATES AND HYALURONIDASES” (HALOZYME, INC., priority 2024, published 2026)
“And” between values parts separate entries of the source, which are not always exact repeats. Identical values can stand only once.

Experiment: Enhertu analytes (TAB, TADC, free payload) in skin tissue homogenates of injection site
Type: in vivo, Yucatan miniature pig (Sus scrofa domestica)
Conditions: SC; for Free Payload Result / TADC/TAB Ratio / Total Antibody Result: skin injection site homogenate, individual sites; for TADC/TAB ratio in tissue homogenates / Concentration of free payload in tissue homogenates of injection site / Concentration of total ADC (TADC) in tissue homogenates of injection site / Concentration of total antibody (TAB) in tissue homogenates of injection site / AUC(1-7), free payload in tissue homogenates of injection site / AUC(1-7), total ADC (TADC) in tissue homogenates of injection site / AUC(1-7), total antibody (TAB) in tissue homogenates of injection site / Cmax, free payload in tissue homogenates of injection site / Cmax, total ADC (TADC) in tissue homogenates of injection site / Cmax, total antibody (TAB) in tissue homogenates of injection site: skin
Experimental: Porcine serum was used as surrogate matrix to prepare calibration standards and quality controls for skin sample quantitation. Untreated blank porcine skin was provided for preparation of monitoring quality controls. The porcine skin was homogenized at an approximate ratio of 0.5 mL of buffer for every 100 mg of skin. […] The monitoring controls were analyzed during the method performance evaluation. The following were selected for monitoring in the assay (Table 83).
Porcine serum was used as surrogate matrix to prepare calibration standards and quality controls for the quantitation of skin samples. […] The porcine skin was homogenized at an approximate ratio of 0.5 mL of buffer for every 100 mg of skin. […] These were analyzed during the method performance evaluation.
This sample was divided vertically into two identical pieces. One skin sample was placed into a pre-weighed cryogenic tube and its weight was recorded then stored on dry ice prior to transfer to ≤−70° C. The other skin sample was processed for potential future histological assessment into OCT freezing media and frozen on dry ice.
Animals received two SC doses on their lower abdominal region.
Two cohorts were included in the follow-on study. […] Each animal had two full thickness skin biopsies taken post-mortem using a 12 mm punch. This sample was divided vertically into two identical pieces. One skin sample was placed into a pre-weighed cryogenic tube and its weight was recorded, then stored on dry ice prior to transfer to ≤−70° C. The other skin sample was processed into OCT molds for potential future histological assessment.
Tissue lysates were prepared based upon the weight of the sample at a ratio of 0.2 g/mL homogenization buffer (Tables 81 and 82). The total protein concentration of each homogenate was determined by BCA assay. The concentration of the total ADC (TADC), total antibody (TAB) and free payload (deruxtecan) in each sample was then normalized to the protein concentration and reported in μg analyte per mg total protein.
In this study, six animals were used. […] Two cohorts were included in this study. Cohort 1 was euthanized 24 hours after treatment, while Cohort 2 was euthanized 48 hours after exposure to the two test solutions.

[1] = 24 h post-injection, individual animal, listed as ADC
[2] = 48 h post-injection, individual animal, listed as ADC
[3] = 168 h post-injection, individual animal, listed as ADC
[4] = individual series, listed as ADC

For Sacituzumab govitecan [Trodelvy], the “Cmax, total ADC in skin” value (mean) was 24210 ng/mL, the “Cmax, total antibody in skin” value (mean) was 27650 ng/mL and the “ADC/Ab ratio, mean AUC1-7” value (minipig skin) was 87%. The “ADC/Ab ratio, mean Cmax” value (minipig skin) was 88%, the “ADC/Payload ratio, mean AUC1-7” value (minipig skin) was 147791% and the “ADC/Payload ratio, mean Cmax” value (minipig skin) was 128404%. For the same substance, the “Free Payload Result” value (24 h, listed as ADC) was 124000 pg/mL and 67800 pg/mL and 138000 pg/mL, the “TADC/TAB Ratio” value (24 h, listed as ADC) was 0.97 and 0.75 and 0.87 and the “Total Antibody Result” value (24 h, listed as ADC) was 143 µg/mL and 97.8 µg/mL and 237 µg/mL. For the same substance, the “Free Payload Result” value (48 h, listed as ADC) was 21700 pg/mL and 29500 pg/mL and 33800 pg/mL, the “TADC/TAB Ratio” value (48 h, listed as ADC) was 0.77 and 0.86 and 0.96 and the “Total Antibody Result” value (48 h, listed as ADC) was 50.2 µg/mL and 51.7 µg/mL and 58.1 µg/mL. For the same substance, the “Free Payload Result” value (168 h, listed as ADC) was 3320 pg/mL and 2240 pg/mL and 3520 pg/mL, the “TADC/TAB Ratio” value (168 h, listed as ADC) was 1.00 and 0.67 and 0.70 and the “Total Antibody Result” value (168 h, listed as ADC) was 4.43 µg/mL and 4.86 µg/mL and 5.80 µg/mL. The “TADC/TAB ratio in tissue homogenates” value (24 h post injection, individual animal, listed as ADC) was 0.87 and 0.97 and 0.75, the “TADC/TAB ratio in tissue homogenates” value (24 h post injection, mean) was 1.14 and the “Concentration of free payload in tissue homogenates of injection site” value (from here on “Concentration of free payload”) [1] was 0.026 μg/mg protein and 0.020 μg/mg protein and 0.011 μg/mg protein. For the same substance, the “Concentration of total ADC (TADC) in tissue homogenates of injection site” value (shortened to “Concentration of total ADC (TADC)”) [1] was 38.48 μg/mg protein and 22.00 μg/mg protein and 12.15 μg/mg protein, the “Concentration of total antibody (TAB) in tissue homogenates of injection site” value (“Concentration of total antibody (TAB)” below) [1] was 44.05 μg/mg protein and 22.63 μg/mg protein and 16.28 μg/mg protein and the “Concentration of free payload” value (24 h post-injection, mean) was 0.02 μg/mg protein. For the same substance, the “Concentration of total ADC (TADC)” value (24 h post-injection, mean) was 24.21 μg/mg protein, the “Concentration of total antibody (TAB)” value (24 h post-injection, mean) was 27.65 μg/mg protein and the “TADC/TAB ratio in tissue homogenates” value (48 h post injection, individual animal, listed as ADC) was 0.78 and 0.86 and 0.96. For the same substance, the “TADC/TAB ratio in tissue homogenates” value (48 h post injection, mean) was 1.15, the “Concentration of free payload” value [2] was 0.003 μg/mg protein and 0.005 μg/mg protein (2×) and the “Concentration of total ADC (TADC)” value [2] was 5.97 μg/mg protein and 6.98 μg/mg protein and 7.80 μg/mg protein. The “Concentration of total antibody (TAB)” value [2] was 7.70 μg/mg protein and 8.07 μg/mg protein and 8.14 μg/mg protein, the “Concentration of free payload” value (48 h post-injection, mean) was 0.00 μg/mg protein and the “Concentration of total ADC (TADC)” value (48 h post-injection, mean) was 6.92 μg/mg protein. For the same substance, the “Concentration of total antibody (TAB)” value (48 h post-injection, mean) was 7.97 μg/mg protein, the “TADC/TAB ratio in tissue homogenates” value (168 h post injection, individual animal, listed as ADC) was 1.01 and 0.67 and 0.70 and the “TADC/TAB ratio in tissue homogenates” value (168 h post injection, mean) was 1.27. For the same substance, the “Concentration of free payload” value [3] was 0.001 μg/mg protein and 0.000 μg/mg protein (2×), the “Concentration of total ADC (TADC)” value [3] was 0.69 μg/mg protein and 0.48 μg/mg protein and 0.55 μg/mg protein and the “Concentration of total antibody (TAB)” value [3] was 0.68 μg/mg protein and 0.72 μg/mg protein and 0.79 μg/mg protein. The “Concentration of free payload” value (168 h post-injection, mean) was 0.00 μg/mg protein, the “Concentration of total ADC (TADC)” value (168 h post-injection, mean) was 0.57 μg/mg protein and the “Concentration of total antibody (TAB)” value (168 h post-injection, mean) was 0.73 μg/mg protein. The “AUC(1-7), free payload in tissue homogenates of injection site” value [4] was 0.024 ug*day/mL (2×) and 0.021 ug*day/mL, the “AUC(1-7), total ADC (TADC) in tissue homogenates of injection site” value [4] was 38.87 µg·days/mL and 33.14 µg·days/mL and 30.85 µg·days/mL and the “AUC(1-7), total antibody (TAB) in tissue homogenates of injection site” value [4] was 46.85 µg·days/mL and 37.33 µg·days/mL and 34.52 µg·days/mL. For the same substance, the “Cmax, free payload in tissue homogenates of injection site” value [4] was 26 ng/mL and 20 ng/mL and 11 ng/mL, the “Cmax, total ADC (TADC) in tissue homogenates of injection site” value [4] was 38480 ng/mL and 22000 ng/mL and 12150 ng/mL and the “Cmax, total antibody (TAB) in tissue homogenates of injection site” value [4] was 44050 ng/mL and 22630 ng/mL and 16280 ng/mL. The “AUC(1-7), free payload in tissue homogenates of injection site” value (mean) was 0.02 µg·days/mL, the “AUC(1-7), total ADC (TADC) in tissue homogenates of injection site” value (mean) was 34.29 µg·days/mL and the “AUC(1-7), total antibody (TAB) in tissue homogenates of injection site” value (mean) was 39.57 µg·days/mL. The “Cmax, free payload in tissue homogenates of injection site” value (mean) was 20 ng/mL, the “Cmax, total ADC (TADC) in tissue homogenates of injection site” value (mean) was 24210 ng/mL and the “Cmax, total antibody (TAB) in tissue homogenates of injection site” value (mean) was 27650 ng/mL.
